According to patent US9540424B2, “Serum albumin binding molecules” (BRISTOL-MYERS SQUIBB COMPANY, priority 2010, dated 2017):

B1: His-tagged FGF21: non-fused His-tagged FGF21 (“FGFv1”; SEQ ID NO: 125) used as a comparator (protein)
chain: MHHHHHHPIPDSSPLLQFGGQVRQRYLYTDDAQQTEAHLEIREDGTVGGAADQSPESLLQLKALKPGVIQILGVKTSRFLCQRPDGALYGSLHFDPEACSFRELLLEDGYNVYQSEAHGLPLHLPGNKSPHRDPAPRGPARFLPLPGLPPALPEPPGILAPQPPDVGSSDPLSMVGPSQGRSPSYAS
modifications: His6 tag
B2: SABA1-FGF21v1: SABA1-FGF21 fusion, SEQ ID NO: 132; 293 aa; DNA SEQ ID NO: 184 (protein)
chain: MGVSDVPRDLEVVAATPTSLLISWHSYYEQNSYYRITYGETGGNSPVQEFTVPYSQTTATISGLKPGVDYTITVYAVYGSKYYYPISINYRTEIEKPSQGSGSGSGSGSGSGSPIPDSSPLLQFGGQVRQRYLYTDDAQQTEAHLEIREDGTVGGAADQSPESLLQLKALKPGVIQILGVKTSRFLCQRPDGALYGSLHFDPEACSFRELLLEDGYNVYQSEAHGLPLHLPGNKSPHRDPAPRGPARFLPLPGLPPALPEPPGILAPQPPDVGSSDPLSMVGPSQGRSPSYAS

Legend:
[1] = tested on: 3T3-L1 adipocytes; assay: pERK assay in 3T3-L1 adipocytes; assay type: cell-based, mouse
Method: 3T3-L1 cells (ATCC # CL-173) are mouse fibroblasts that can be differentiated into mouse adipocytes. Since β-klotho is expressed only in differentiated 3T3-L1 cells, it was necessary to first differentiate them before performing a β-klotho pERK 1/2 assay as described in Example B3.
The cells were grown in DMEM media (Invitrogen #12430-054) supplemented with 10% characterized fetal bovine serum (Hyclone # SH30071.03) and 1X Antibiotic-Antimycotic (Gibco #15240-096). Cells were cultured in a 37° C. incubator with 5% CO2. The sub-culturing procedure was followed as described in ATCC's product information sheet with the exception that TrypLE Express (Gibco #12605) was used instead of the Trypsin-EDTA solution.
Approximately 68 hours before differentiation, 5500 cells per well (in 150 μl media) were seeded into 96 well plates (Falcon #353072); cell numbers could be adjusted according to the time of the seeding and their doubling time, but cells were 100% confluent at the time the differentiation procedure was started. […]
At the ninth to tenth day of differentiation, the growth media was aspirated off the cells and cells were starved with 200 μl of DMEM (Invitrogen #12320-032) with 2% fetal bovine serum overnight. […] The plate was finally read on a PerkinElmer Envision 2103 Multilabel Reader, using standard Alpha Screening settings.

[2] = molecular target: T1, CySA (Macaca fascicularis, UniProt A2V9Z4); assay: SPR (Biacore T100) kinetics of FGF21-SABA1 fusions: CySA; assay type: binding, cynomolgous monkey; settings: flow rate 30 μl/min
T1 construct: purchased Equitech-Bio CMSA
T1 sequence (A2V9Z4 25-608): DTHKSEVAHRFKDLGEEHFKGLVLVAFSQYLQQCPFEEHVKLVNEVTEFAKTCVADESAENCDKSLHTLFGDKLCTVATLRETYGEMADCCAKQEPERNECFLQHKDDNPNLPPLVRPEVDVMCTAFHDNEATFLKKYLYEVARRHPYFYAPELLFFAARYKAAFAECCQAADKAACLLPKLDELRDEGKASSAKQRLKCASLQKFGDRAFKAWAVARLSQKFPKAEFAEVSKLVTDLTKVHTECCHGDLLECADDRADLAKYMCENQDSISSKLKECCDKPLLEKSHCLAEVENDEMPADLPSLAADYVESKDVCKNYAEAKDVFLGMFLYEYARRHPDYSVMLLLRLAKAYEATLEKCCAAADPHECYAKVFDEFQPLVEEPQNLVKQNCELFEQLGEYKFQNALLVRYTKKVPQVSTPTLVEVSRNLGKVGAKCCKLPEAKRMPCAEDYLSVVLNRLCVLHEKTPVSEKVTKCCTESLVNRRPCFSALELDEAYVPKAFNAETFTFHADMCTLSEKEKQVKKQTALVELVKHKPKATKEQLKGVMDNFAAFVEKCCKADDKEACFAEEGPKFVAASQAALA
Method: (§1) The binding competency and thermodynamic characterization of FGF21-SABA fusion variants to human serum albumin were performed using Isothermal Titration calorimetry on a Microcal VP-ITC instrument (Microcal Inc. Amherst Mass., USA). […] The detailed experimental conditions are described below.
(§2) For the calorimetry assay, the FGF21-SABA variant SABA1-FGF21v1 (SEQ ID NO: 132) was used. […] For the SPR studies, SABA1-FGF21v1 and SABA1-FGF21v3 (SEQ ID NO: 134) were examined.
(§3) Serum albumins were dissolved in PBS buffer (10 mM sodium phosphate, 130 mM sodium chloride, pH 7.1) to a concentration of 10 mg/ml, and subsequently diluted to 8-10 μg/ml in 10 mM sodium acetate pH 5.0 for immobilization. Serum albumins were immobilized on a Series S CMS sensor chip using standard ethyl(dimethylaminopropyl) carbodiimide (EDC)/N-hydroxysuccinimide (NHS) chemistry in HBS-EP+ running buffer at 25° C., following general manufacturer guidelines. Flow cell 1 was activated with EDC/NHS and blocked with ethanolamine. […] Kinetic experiments were performed in PBS buffer containing 0.05% tween-20 (running buffer) at either 25° C. or 37° C. […] These samples were injected across flow cells 1-4 for 300 s, with a 420 s dissociation time, at flow rates of 30 μl/min or 60 μl/min to check for mass transfer limitation. All surfaces were regenerated with 2 pulses of 10 mM glycine pH 2.0 at 30 μl/min for 30 s. Raw sensograms were “double-referenced” by subtracting flow cell 1 data from flow cell 2, 3 or 4 data, and then subtracting a separate buffer cycle from each sensogram. The double-referenced sensogram data was fitted to a 1:1 Langmuir model using Biacore T100 Evaluation software version 2.0.2 to determine the association rate constant (ka), the dissociation rate constant (kd), and the equilibrium dissociation constant (KD).

[3] = molecular target: MuSA (Mus musculus, UniProt P07724); assay: SPR (Biacore T100) kinetics of FGF21-SABA1 fusions: MuSA; assay type: binding, murine; parameters: purchased Sigma A3559; settings: flow rate 30 μl/min, up to 1 uM analyte
Sequence of MuSA (P07724 25-608): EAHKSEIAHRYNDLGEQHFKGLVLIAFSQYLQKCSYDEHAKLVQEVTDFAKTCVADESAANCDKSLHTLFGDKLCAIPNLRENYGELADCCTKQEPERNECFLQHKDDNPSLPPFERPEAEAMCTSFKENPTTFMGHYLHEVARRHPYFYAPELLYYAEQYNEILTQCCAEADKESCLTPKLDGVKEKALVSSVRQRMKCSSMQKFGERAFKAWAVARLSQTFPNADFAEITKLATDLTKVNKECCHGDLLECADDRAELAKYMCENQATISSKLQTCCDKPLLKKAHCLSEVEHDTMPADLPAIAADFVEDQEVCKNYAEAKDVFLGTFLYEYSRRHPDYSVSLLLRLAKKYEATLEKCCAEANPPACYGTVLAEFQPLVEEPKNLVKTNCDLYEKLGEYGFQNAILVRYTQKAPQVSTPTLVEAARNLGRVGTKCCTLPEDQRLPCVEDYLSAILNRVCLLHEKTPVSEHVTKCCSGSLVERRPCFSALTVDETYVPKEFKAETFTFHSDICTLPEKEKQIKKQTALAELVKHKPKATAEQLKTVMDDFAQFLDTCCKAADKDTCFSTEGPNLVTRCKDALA
Method: as §1, §2, §3

[4] = tested on: diabetic ob/ob mice; assay: Acute and chronic effects of SABA1-FGF21v1 in diabetic ob/ob mice, 3 weeks daily treatment; assay type: in vivo, mouse
From the text: Additional acute and chronic effects of SABA1-FGF21v1 were examined in the diabetic ob/ob mice. At study termination after 3 weeks of daily treatment, reductions in plasma glucose, insulin and total cholesterol were observed. Plasma alanine aminotransferase was reduced and β-hydroxybutyrate levels were elevated.

[5] = molecular target: HSA (Homo sapiens, UniProt P02768); assay: Isothermal Titration calorimetry of SABA1-FGF21 fusion with HSA; assay type: binding; settings: 37° C., PBS buffer
Method: as §1, §2
SABA-FGF21 fusion protein plus buffer was placed in the instrument sample cell at a concentration range of 0.4 to 1.0 mg/mL protein. The matching buffer was placed in the reference cell. Concentrations were determined using extinction coefficients calculated from the protein sequences of the pure proteins. The instrument reaction cell was equilibrated at 37° C. […] Data sets obtained were baseline-subtracted and corrected for the heat of dilution of the HSA injected into the cell. The resultant thermogram data was fitted using Origin™ evaluation software package (Microcal Inc.) version 2.0.2 to estimate the stochiometry, enthalpy, and equilibrium disassociation constant (KD) of the protein-protein binding reaction.

[6] = after 3 weeks of daily treatment

| Molecule | EC50 [1] [nM] | Fold Activation [1] | ka ([2]; 25° C.) [M⁻¹ s⁻¹] | kd ([2]; 25° C.) [s⁻¹] | ka ([2]; 37° C.) [M⁻¹ s⁻¹] | kd ([2]; 37° C.) [s⁻¹] | binding to MuSA ([3]; 25° C.) | binding to MuSA ([3]; 37° C.) | Plasma alanine aminotransferase [4, 6] | β-hydroxybutyrate levels [4, 6] | oral glucose tolerance test ([4]; mouse, in vivo, po) | plasma glucose, insulin and total cholesterol ([4]; study termination after 3 weeks of daily treatment) | N (stoichiometry) by isothermal titration calorimetry [5] |
| --- | --- | --- | --- | --- | --- | --- | --- | --- | --- | --- | --- | --- | --- |
| B1 | 4 ± 2 | 2.1 ± 0.2 |  |  |  |  |  |  |  |  |  |  |  |
| B2 |  |  | 3930 | 0.0047 | 4440 | 0.0123 | no binding observed up | no binding observed up | reduced | elevated | increased capacity to handle a glucose load | reductions | 0.87 |
